Measurements from the MegaScale stability set (Tsuboyama et al. 2023).

B1: r16_88_TrROS_Hall (parent)
chain: EVIELKIKFKTPEQREKLKEIAKKLNAEVVEEKDGEVIIRFKTPEQAERALKEAEKLGAEVEL

Variants of: B1
Assay: folding stability dG (cDNA display proteolysis); higher = more stable
Details: PBS, room temperature

| Variant | folding stability dG [kcal/mol] |
| --- | --- |
| EVIELKIKFKTAEQREKLKEIAKKLNAEVVEEKDGEVIIRFKTPEQAERALKEAEKLGAEVEL [P12A] | 4.39 |
| EVIELKIKFKTPEQREKLKEIAKKLNAEVVEEKDGEVIIRFKTPEQAERALKEAEKLGAEMEL [V61M] | 3.99 |
| EVIELKIKFKTPEQREKLKEIAKKLNAEVVEEKDGEVIIRFKTPEQAERALKEAEHLGAEVEL [K56H] | 4.33 |
| EVIELKIKFKTPEQREKLKEIAKKLNAEVVEEKDGEVIIRFKTPEQAERALKEAESLGAEVEL [K56S] | 4.51 |
| EVIELKIKFKTPEQREKLKEIAKQLNAEVVEEKDGEVIIRFKTPEQAERALKEAEKLGAEVEL [K24Q] | 4.56 |
| EVIELKIKFKTPEQREKLKEIAKDLNAEVVEEKDGEVIIRFKTPEQAERALKEAEKLGAEVEL [K24D] | 4.39 |
| EVIELKIKFKTPEQREKLKEIAKKLNAEVVEEKDGEVHIRFKTPEQAERALKEAEKLGAEVEL [I38H] | 4.63 |
| EVIELKIKFKTPEQREKLKEIAKKLNAEVVEEKDGEVAIRFKTPEQAERALKEAEKLGAEVEL [I38A] | 4.26 |
| EVIWLKIKFKTPEQREKLKEIAKKLNAEVVEEKDGEVIIRFKTPEQAERALKEAEKLGAEVEL [E4W] | 4.66 |
| EVIRLKIKFKTPEQREKLKEIAKKLNAEVVEEKDGEVIIRFKTPEQAERALKEAEKLGAEVEL [E4R] | 4.58 |
| EVISLKIKFKTPEQREKLKEIAKKLNAEVVEEKDGEVIIRFKTPEQAERALKEAEKLGAEVEL [E4S] | 4.54 |
| EVIFLKIKFKTPEQREKLKEIAKKLNAEVVEEKDGEVIIRFKTPEQAERALKEAEKLGAEVEL [E4F] | 4.76 |
| EVIKLKIKFKTPEQREKLKEIAKKLNAEVVEEKDGEVIIRFKTPEQAERALKEAEKLGAEVEL [E4K] | 4.51 |
| EVIELKIKFKTPEQRRKLKEIAKKLNAEVVEEKDGEVIIRFKTPEQAERALKEAEKLGAEVEL [E16R] | 4.54 |
| EVIELKIKFKTPEQRQKLKEIAKKLNAEVVEEKDGEVIIRFKTPEQAERALKEAEKLGAEVEL [E16Q] | 4.43 |
| EVIELKIKFKTPEQREKLKEIAKKLNAEVVEEKDGEVIDRFKTPEQAERALKEAEKLGAEVEL [I39D] | 0.533 |
| EVIELKIKFKTPEQREKLKEIAKKLNAEVVEEKDGEVIIRFKTPEQAERALKEAEKLGASVEL [E60S] | 4.28 |
| EVIELKIKFKTPEQREKLKEIAKKLNAEVVEEKDGEVIIRFKTPEQAERALKEAEKLGAGVEL [E60G] | 3.81 |
| EVIELKIKFKTPEQREKLKEIAKKLNAEVVEEKDGEVIIRFKTPEQIERALKEAEKLGAEVEL [A47I] | 4.51 |
| EVIELYIKFKTPEQREKLKEIAKKLNAEVVEEKDGEVIIRFKTPEQAERALKEAEKLGAEVEL [K6Y] | 4.77 |
| EVIELIIKFKTPEQREKLKEIAKKLNAEVVEEKDGEVIIRFKTPEQAERALKEAEKLGAEVEL [K6I] | 4.47 |
| EVIELSIKFKTPEQREKLKEIAKKLNAEVVEEKDGEVIIRFKTPEQAERALKEAEKLGAEVEL [K6S] | 4.26 |

| Variant | folding stability dG [kcal/mol] |
| --- | --- |
| EVIELRIKFKTPEQREKLKEIAKKLNAEVVEEKDGEVIIRFKTPEQAERALKEAEKLGAEVEL [K6R] | 4.73 |
| NVIELKIKFKTPEQREKLKEIAKKLNAEVVEEKDGEVIIRFKTPEQAERALKEAEKLGAEVEL [E1N] | 4.33 |
| AVIELKIKFKTPEQREKLKEIAKKLNAEVVEEKDGEVIIRFKTPEQAERALKEAEKLGAEVEL [E1A] | 4.45 |
| EVIELKIKFKTPEQREKLKEIAKKLNAEVVEEKDGEVIIRFKTPEQAERALKEAEKLGAEVEC [L63C] | 4.44 |
| EVIELKIKFKTPEQREKLKEIAKKLNAEVVEEKDGEVIIRFKTPEQAERALKEAEKLGAEVER [L63R] | 4.28 |
| EVIELKIKFKTPWQREKLKEIAKKLNAEVVEEKDGEVIIRFKTPEQAERALKEAEKLGAEVEL [E13W] | 4.85 |
| EVIELKIKFKTPEQREKLKEIAKKLNAEVVEEKDGEVIIRFTTPEQAERALKEAEKLGAEVEL [K42T] | 4.13 |
| EVIELKIKFKTPEQREKLKEIAKKLNAEVVEEKDGEVIIRFYTPEQAERALKEAEKLGAEVEL [K42Y] | 4.36 |
| EVIELKIKFKTPEQREKLKEIAKKLNAEVVEEKDGEVIIRFKTPVQAERALKEAEKLGAEVEL [E45V] | 4.24 |
| EVIELKIKFKTPEQREKLKEIAKKLNAEVVEEKDGEVIIRFKTPKQAERALKEAEKLGAEVEL [E45K] | 4.42 |
| EVIELKIKFKTPEQREKLKEIAKKLNAEVVEEKDGEVIIRFKTPSQAERALKEAEKLGAEVEL [E45S] | 4.29 |
| EVIELKIKFKTPEQREKLKEIAKKLNAEVVEEKDGEVIIRFKTPCQAERALKEAEKLGAEVEL [E45C] | 4.77 |
| EYIELKIKFKTPEQREKLKEIAKKLNAEVVEEKDGEVIIRFKTPEQAERALKEAEKLGAEVEL [V2Y] | 4.53 |
| ELIELKIKFKTPEQREKLKEIAKKLNAEVVEEKDGEVIIRFKTPEQAERALKEAEKLGAEVEL [V2L] | 4.27 |
| EVIELKIKFKTPEQREKLKEIAKKLNAEVVEEKDGEVIIRFKTPEQAERALKMAEKLGAEVEL [E53M] | 4.39 |
| EVIELKIKFKTPEQREKLKEIAKKLNAEVVEEKDGEVIIRFKTPEQAERALKFAEKLGAEVEL [E53F] | 4.49 |
| EVIELKIKFKTPEQREKLKEIAKKLNAEVVEEKDGEVIIRFKTPEQATRALKEAEKLGAEVEL [E48T] | 4.28 |
| EVIELKIKFKTPEQREKLKEIAKKLNAEVVEEKDGEVIIRFKTPEQAPRALKEAEKLGAEVEL [E48P] | 3.89 |
| EVIELKIKFKTPEQREKLKEIAKKLNAEVVEEKDGEVIIRFKTPEQARRALKEAEKLGAEVEL [E48R] | 4.25 |
| EVIELKIMFKTPEQREKLKEIAKKLNAEVVEEKDGEVIIRFKTPEQAERALKEAEKLGAEVEL [K8M] | 4.48 |
| EVIELKIKFKTPEQREKLKEIAKKLNAEVVEEKDGEVIIRFKTYEQAERALKEAEKLGAEVEL [P44Y] | 4.39 |
| EVIELKIKFKTPEQREKLKEIAKKLNAEVVEEKDGEVIIRFKTVEQAERALKEAEKLGAEVEL [P44V] | 4.35 |

| Variant | folding stability dG [kcal/mol] |
| --- | --- |
| EVIELKIKFKTPEQREKLKEIAKKLNAEVVEEKWGEVIIRFKTPEQAERALKEAEKLGAEVEL [D34W] | 4.32 |
| EVIELKIKFKTPEQREKLKEIAKKLNAEVVEEKYGEVIIRFKTPEQAERALKEAEKLGAEVEL [D34Y] | 4.29 |
| EVIELKIKFKTPEQREKLKEIAKKLNAEVVCEKDGEVIIRFKTPEQAERALKEAEKLGAEVEL [E31C] | 4.51 |
| EVIELKIKFKTPEQREKLKEIAKKLNAEVVEEKDGEVIIRFKTPEQAEVALKEAEKLGAEVEL [R49V] | 4.5 |
| EVIELKIKFKTPEQREKLKEIAKKLNAEVVEEKDGEVIIRFKTPEQAEMALKEAEKLGAEVEL [R49M] | 4.46 |
| EVIELKIKFKTPEQREKLKEIAKKLNAEVVEEKDGEVIIRFKTPEQAEAALKEAEKLGAEVEL [R49A] | 4.37 |
| EVIELKIKFKTPEQREKLKEIAKKLNAEVKEEKDGEVIIRFKTPEQAERALKEAEKLGAEVEL [V30K] | 4.48 |
| EVIELKIKFKTPEQREKLKEIAKKLNAEVYEEKDGEVIIRFKTPEQAERALKEAEKLGAEVEL [V30Y] | 4.42 |
| EVIELKIKFKTPENREKLKEIAKKLNAEVVEEKDGEVIIRFKTPEQAERALKEAEKLGAEVEL [Q14N] | 4.47 |
| EVIELKIKFKTPERREKLKEIAKKLNAEVVEEKDGEVIIRFKTPEQAERALKEAEKLGAEVEL [Q14R] | 4.42 |
| EVIELKIKFKTPEQREKLKEITKKLNAEVVEEKDGEVIIRFKTPEQAERALKEAEKLGAEVEL [A22T] | 4.36 |
| EVIELKIKFKTPEQREKLKEISKKLNAEVVEEKDGEVIIRFKTPEQAERALKEAEKLGAEVEL [A22S] | 4.19 |
| EVIELKIKFKTPEQREKLKEIFKKLNAEVVEEKDGEVIIRFKTPEQAERALKEAEKLGAEVEL [A22F] | 4.65 |
| EVIELKIKFKTPEQREKLKEIGKKLNAEVVEEKDGEVIIRFKTPEQAERALKEAEKLGAEVEL [A22G] | 4.64 |
| EVIENKIKFKTPEQREKLKEIAKKLNAEVVEEKDGEVIIRFKTPEQAERALKEAEKLGAEVEL [L5N] | 3.85 |
| EVIEDKIKFKTPEQREKLKEIAKKLNAEVVEEKDGEVIIRFKTPEQAERALKEAEKLGAEVEL [L5D] | 2 |
| EVIELKQKFKTPEQREKLKEIAKKLNAEVVEEKDGEVIIRFKTPEQAERALKEAEKLGAEVEL [I7Q] | 3.21 |
| EVIELKNKFKTPEQREKLKEIAKKLNAEVVEEKDGEVIIRFKTPEQAERALKEAEKLGAEVEL [I7N] | 2.98 |
| EVIELKIKFKTPEQREKLKEIAKKLNAEVVEEKDGEVIIRFKTPEYAERALKEAEKLGAEVEL [Q46Y] | 4.17 |
| EVIELKIKFKTPEQREKLKEIAKKLNAEVVEEKDGEVIIRFKTPERAERALKEAEKLGAEVEL [Q46R] | 4 |
| EVIELKIKFKTPEQREKLKEIAKKLNAEVVEEKDGEVIIRFKTPEWAERALKEAEKLGAEVEL [Q46W] | 4.2 |
| EVIELKIKFKTPEQREKLKEIAKKLNAEVVEEKDGEVIIRFKTPEEAERALKEAEKLGAEVEL [Q46E] | 4.18 |

| Variant | folding stability dG [kcal/mol] |
| --- | --- |
| EVIELKIKFKTPEQREVLKEIAKKLNAEVVEEKDGEVIIRFKTPEQAERALKEAEKLGAEVEL [K17V] | 4.28 |
| EVIELKIKFKTPEQREKLKEIAKKLNAEVVEEKDGEVIIRFKTPEQAERALKEAEKLEAEVEL [G58E] | 4.12 |
| EVIELKIKFKTPEQREKLKEIAKKLNAEVVEEKDGEVIIRFKTPEQAERALKEAEKLSAEVEL [G58S] | 4.43 |
| EVIELKIKFKTPEQREKLKEIAKKLNAEVVEEKDGEVIIRFKTPEQAERALKEAEKLVAEVEL [G58V] | 4.21 |
| EVIELKIKFKTPEQREKLKEIAKKLNAEVVEEKDGEVIIRFKTPEQAERALKEAEKLRAEVEL [G58R] | 4.27 |
| EVIELKIKFKTPEQREKLKEIAKKLNAEVVEEKDGEVIIRPKTPEQAERALKEAEKLGAEVEL [F41P] | 3.46 |
| EVIELKIKFKTPEQREKLKEIAKKLNAEVVEEKDGEVIIRCKTPEQAERALKEAEKLGAEVEL [F41C] | 4.28 |
| EVIELKIKFKTPEQREKLKEIAKKLNAEVVEEKDGEVIIRAKTPEQAERALKEAEKLGAEVEL [F41A] | 4.49 |
| EVIELKIKFKTPEQREKLKEIAKKLNAEVVEEKDGEVIIRSKTPEQAERALKEAEKLGAEVEL [F41S] | 4.03 |
| EVIELKIKFKTPEQREKLKEIAKKLNAEVVEEKDGEVIIRFKTPEQAERALMEAEKLGAEVEL [K52M] | 4.28 |
| EVIELKIKFKTPEQREKLKEIAKKLNAEVVEEKDGEVIIRFKTPEQAERALKEDEKLGAEVEL [A54D] | 2.86 |
| EVIELKIKFKTPEQREKLKEIAKKLNAEVVEEKDGEVIIRFKTPEQAERALKEAEKMGAEVEL [L57M] | 4.31 |
| EVIELKIKFKTPEQREKLKEIAKKLNAEVVEEKDGWVIIRFKTPEQAERALKEAEKLGAEVEL [E36W] | 4.7 |
| EVIELKIKFKTPEQREKLKEIAKKLNAEVVEEKDGCVIIRFKTPEQAERALKEAEKLGAEVEL [E36C] | 4.39 |
| EVIELKIKFKTPEQREKLKEIAKKLNAEVVEEKDGETIIRFKTPEQAERALKEAEKLGAEVEL [V37T] | 4.32 |
| EVIELKIKFKTPEQREKLKEIAKKLNAEVVEEKDGECIIRFKTPEQAERALKEAEKLGAEVEL [V37C] | 4.19 |
| EVIELKIKFKTPEQREKLKEIAKKLNAEVVEEKDGEEIIRFKTPEQAERALKEAEKLGAEVEL [V37E] | 3.36 |
| EVIELKIKFKTPEQREKLKEIAKKLNAEVVEEKDGEWIIRFKTPEQAERALKEAEKLGAEVEL [V37W] | 4.36 |
| EVIELKIKFKTPEQREKLKEIAKKLNAEVVEEKDGEVIIRFKCPEQAERALKEAEKLGAEVEL [T43C] | 4.63 |
